Measured values as given in patent US20150071985A1 (HAEMOSTATIX, published 2015).
Where no end group is shown, it is not given here.

T1: human fibrinogen (human, UniProt P02671 20-629; P02675 31-491; P02679 27-437, limits assumed)
T1 construct: also called purified human fibrinogen
T1 sequence (looked up) 1: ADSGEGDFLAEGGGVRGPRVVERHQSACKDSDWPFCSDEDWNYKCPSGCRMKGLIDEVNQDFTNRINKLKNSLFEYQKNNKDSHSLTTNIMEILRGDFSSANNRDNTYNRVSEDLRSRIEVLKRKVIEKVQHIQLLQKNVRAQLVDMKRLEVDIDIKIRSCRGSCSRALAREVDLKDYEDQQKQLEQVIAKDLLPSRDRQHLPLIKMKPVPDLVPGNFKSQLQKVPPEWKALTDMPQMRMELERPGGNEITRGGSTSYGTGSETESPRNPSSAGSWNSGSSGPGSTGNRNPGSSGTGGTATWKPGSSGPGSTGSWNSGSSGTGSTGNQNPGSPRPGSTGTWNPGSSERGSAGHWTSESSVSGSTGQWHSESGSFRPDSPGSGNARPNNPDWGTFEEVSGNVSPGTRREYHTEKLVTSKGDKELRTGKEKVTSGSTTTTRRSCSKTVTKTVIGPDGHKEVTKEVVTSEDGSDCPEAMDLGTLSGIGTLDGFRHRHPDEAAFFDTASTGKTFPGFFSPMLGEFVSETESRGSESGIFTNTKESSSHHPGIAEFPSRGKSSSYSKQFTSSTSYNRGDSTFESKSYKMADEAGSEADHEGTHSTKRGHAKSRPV
T1 sequence (looked up) 2: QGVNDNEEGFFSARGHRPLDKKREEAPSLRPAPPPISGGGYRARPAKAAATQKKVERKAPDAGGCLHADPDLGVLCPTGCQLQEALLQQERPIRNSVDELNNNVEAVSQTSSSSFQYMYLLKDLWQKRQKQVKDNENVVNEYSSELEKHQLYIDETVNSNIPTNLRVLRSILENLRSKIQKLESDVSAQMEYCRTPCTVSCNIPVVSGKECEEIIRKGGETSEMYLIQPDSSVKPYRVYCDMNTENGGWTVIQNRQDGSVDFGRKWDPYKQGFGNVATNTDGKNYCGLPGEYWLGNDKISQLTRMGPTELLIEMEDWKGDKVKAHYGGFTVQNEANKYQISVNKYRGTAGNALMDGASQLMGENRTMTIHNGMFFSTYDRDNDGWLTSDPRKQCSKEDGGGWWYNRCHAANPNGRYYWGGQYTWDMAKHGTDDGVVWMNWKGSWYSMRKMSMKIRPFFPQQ
T1 sequence (looked up) 3: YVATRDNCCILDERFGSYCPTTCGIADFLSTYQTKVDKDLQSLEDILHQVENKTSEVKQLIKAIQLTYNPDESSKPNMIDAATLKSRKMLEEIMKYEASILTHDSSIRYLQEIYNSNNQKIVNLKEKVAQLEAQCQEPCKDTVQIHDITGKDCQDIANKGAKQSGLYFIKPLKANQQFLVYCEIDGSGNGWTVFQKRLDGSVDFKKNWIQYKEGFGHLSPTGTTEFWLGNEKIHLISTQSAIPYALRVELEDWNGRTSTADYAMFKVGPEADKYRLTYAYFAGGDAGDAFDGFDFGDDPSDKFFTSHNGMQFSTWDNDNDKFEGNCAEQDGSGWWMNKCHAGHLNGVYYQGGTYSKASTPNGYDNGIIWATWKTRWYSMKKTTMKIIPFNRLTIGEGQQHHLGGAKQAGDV


Tests used:
[1] = biological target: human fibrinogen (human) (UniProt P02671); assay: cell-based or functional assay
[2] = biological target: T1, human fibrinogen; assay: flow cytometry; peptide-albumin microparticles incubated with fluorescent fibrinogen

Row | Clotting activity (time to clot formation, Sigma Amelung KC4 coagulometer; 30 µL sample at 0.5 mg/ml added to 100 µL purified human fibrinogen at 3 mg/ml) [1] [s] | binding result [2] | Molecule
1 | < 6 | – | PeproStat (GPRPG-PEG12-maleimide conjugated to thiolated human serum albumin) (from UniProt P02768 25-609)
2 | – | binds | GPRPG (also: conjugated to albumin microparticles, linker and chemistry not given here, Surrogate of PeproStat for the flow cytometry test; also called the particles; not shown: The albumin microparticle carrier) [GPRPG peptide conjugated to albumin microparticles]
